In FireProtDB:
Several values for one entry are separate records, joined by “and”; a condition that tells them apart may be missing. Identical values can stand only once.

[1] = Cyprinus carpio, pH 7.5, Thermal, CD, Sodium phosphate 10 mM, CaCl2 0.00001 M
[2] = Gallus gallus, pH 7, 25 °C, NaClO4 titration, CD, PIPES 10 mM, NaCl 50 mM, reversible: no
[3] = Methanobacterium formicicum, pH 7.2, 25 °C, GdnHCl, CD, potasssium phosphate 20 mM, KCl 200 mM, reversible: yes
[4] = Oryctolagus cuniculus, pH 7, Thermal, DSC, Glycerol 20 % v/v, KCl 100 mM, reversible: no, whole UniProt chain shown
[5] = Escherichia coli (strain K12), pH 7.2, 51.8 °C, Thermal, DSC, HEPES 0.05 mM, structure 1ANK
[6] = Escherichia coli (strain K12), pH 7.2, Thermal, DSC, HEPES 0.05 mM, structure 1ANK
[7] = Saccharomyces cerevisiae (strain ATCC 204508 / S288c), pH 4.6, 37 °C, Thermal, DSC, Potassium acetate 0.1 M, reversible: yes, structure 1YCC
[8] = Saccharomyces cerevisiae (strain ATCC 204508 / S288c), pH 6, 46.5 °C, Thermal, Absorbance, Sodium phosphate 100 mM, reversible: yes, structure 1YCC
[9] = Saccharomyces cerevisiae (strain ATCC 204508 / S288c), pH 6, Thermal, Absorbance, Sodium phosphate 100 mM, reversible: yes, structure 1YCC
[10] = Escherichia coli (strain K12), pH 7.2, Thermal, DSC, HEPES 0.05 mM
[11] = Escherichia coli (strain K12), pH 7.4, Thermal, DSC, HEPES 50 mM
[12] = Saccharomyces cerevisiae (strain ATCC 204508 / S288c), pH 6, 20 °C, GdnHCl, Fluorescence, Sodium phosphate 0.1 M, reversible: yes, structure 1YCC
[13] = Homo sapiens, pH 7.5, Thermal, CD, HEPES 0.8mM, NaCl 6mM, transition: 2, structure 6EW2
[14] = Bos taurus, pH 8, Thermal, DSC, Tris-HCl 10 mM, NaCl 200 mM, reversible: yes
[15] = Homo sapiens, pH 7.5, Thermal, DSF, Hepes 25mM, NaCl 150mM, structure 6DLO
[16] = Escherichia coli (strain K12), pH 7.5, Thermal, CD, Potassium phosphate 10 mM, reversible: yes, structure 1EZA
[17] = Escherichia coli (strain K12), pH 7.5, Thermal, DSC, Potassium phosphate 10 mM, reversible: yes, structure 1EZA
[18] = Escherichia coli (strain K12), pH 7, 30 °C, Urea, CD, Potassium phosphate 10 mM
[19] = Escherichia coli (strain K12), pH 7, 10 °C, Urea, CD, Potassium phosphate 50 mM, KCl 100 mM
[20] = Escherichia coli (strain K12), pH 7, 25 °C, GdnHCl, Fluorescence, potassium phosphate 50 mM, KCl 100 M, reversible: yes
[21] = Escherichia coli (strain K12), pH 7, 25 °C, Urea, CD, Potassium phosphate 50 mM, KCl 100 mM
[22] = Escherichia coli (strain K12), pH 7, 25 °C, Urea, Fluorescence, potassium phosphate 50 mM, KCl 100 mM, reversible: yes
[23] = Saccharomyces cerevisiae (strain ATCC 204508 / S288c), pH 6, 20 °C, GdnHCl, Fluorescence, Sodium phosphate 0.1 M, reversible: yes
[24] = Saccharomyces cerevisiae (strain ATCC 204508 / S288c), pH 7, 25 °C, GdnHCl, CD, Tris 20 mM, NaCl 40 mM, reversible: yes
[25] = Saccharomyces cerevisiae (strain ATCC 204508 / S288c), pH 7.5, 22 °C, GdnHCl, CD, Tris 20 mM, NaCl 40 mM

Archaeal histone B wild type, P48784, sequence (P48784 whole entry): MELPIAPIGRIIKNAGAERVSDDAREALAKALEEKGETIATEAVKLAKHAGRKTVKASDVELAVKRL
Adenylate kinase wild type, P69441, sequence (P69441 whole entry): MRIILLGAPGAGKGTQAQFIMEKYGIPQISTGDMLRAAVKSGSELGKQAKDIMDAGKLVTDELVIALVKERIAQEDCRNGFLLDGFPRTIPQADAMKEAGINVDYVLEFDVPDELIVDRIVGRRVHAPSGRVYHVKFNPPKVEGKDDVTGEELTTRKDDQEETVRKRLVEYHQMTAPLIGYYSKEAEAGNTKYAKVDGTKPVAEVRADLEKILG
Cytochrome c isoform 1 N58I|C108A, P00044 N58I C108A, sequence (P00044 whole entry N58I/C108A, canonical isoform): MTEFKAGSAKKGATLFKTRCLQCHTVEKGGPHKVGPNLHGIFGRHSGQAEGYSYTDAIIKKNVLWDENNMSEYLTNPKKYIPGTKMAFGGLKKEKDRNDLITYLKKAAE
Cytochrome c isoform 1 wild type, P00044, sequence (P00044 whole entry, canonical isoform): as the sequence (P00044 whole entry N58I/C108A, canonical isoform) above, with I58N, A108C counted along it
Cytochrome c isoform 1 P77T, P00044, sequence (P00044 whole entry P77T, canonical isoform): as the sequence (P00044 whole entry N58I/C108A, canonical isoform) above, with I58N, P77T, A108C counted along it
Cytochrome c isoform 1 P77I, P00044, sequence (P00044 whole entry P77I, canonical isoform): as the sequence (P00044 whole entry N58I/C108A, canonical isoform) above, with I58N, P77I, A108C counted along it
Superoxide dismutase [Cu-Zn] wild type, P00442, sequence (P00442 whole entry): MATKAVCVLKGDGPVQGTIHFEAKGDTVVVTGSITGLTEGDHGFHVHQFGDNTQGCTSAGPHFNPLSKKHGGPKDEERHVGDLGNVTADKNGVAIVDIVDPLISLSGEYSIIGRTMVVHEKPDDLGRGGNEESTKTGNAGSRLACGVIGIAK
Cytochrome c isoform 1 G35S|N58I, P00044 G35S N58I, sequence (P00044 whole entry G35S/N58I, canonical isoform): as the sequence (P00044 whole entry N58I/C108A, canonical isoform) above, with G35S, A108C counted along it
Cytochrome c isoform 1 C108S, P00044, sequence (P00044 whole entry C108S, canonical isoform): as the sequence (P00044 whole entry N58I/C108A, canonical isoform) above, with I58N, A108S counted along it
Cytochrome c isoform 1 N58I, P00044, sequence (P00044 whole entry N58I, canonical isoform): as the sequence (P00044 whole entry N58I/C108A, canonical isoform) above, with A108C counted along it
Cold shock protein CspA wild type, P0A9X9, sequence (P0A9X9 whole entry): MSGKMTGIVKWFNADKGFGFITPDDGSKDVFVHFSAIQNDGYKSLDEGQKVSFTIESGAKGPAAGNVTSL
Parvalbumin beta wild type, P02618, sequence (P02618 whole entry): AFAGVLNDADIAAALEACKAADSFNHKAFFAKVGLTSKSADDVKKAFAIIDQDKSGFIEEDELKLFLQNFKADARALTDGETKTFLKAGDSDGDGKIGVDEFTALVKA
Cytochrome c isoform 1 H39P|N58I, P00044 H39P N58I, sequence (P00044 whole entry H39P/N58I, canonical isoform): as the sequence (P00044 whole entry N58I/C108A, canonical isoform) above, with H39P, A108C counted along it
Cytochrome c isoform 1 C108A, P00044, sequence (P00044 whole entry C108A, canonical isoform): as the sequence (P00044 whole entry N58I/C108A, canonical isoform) above, with I58N counted along it
Cytochrome c V93A, P67881, sequence (P67881 whole entry V93A): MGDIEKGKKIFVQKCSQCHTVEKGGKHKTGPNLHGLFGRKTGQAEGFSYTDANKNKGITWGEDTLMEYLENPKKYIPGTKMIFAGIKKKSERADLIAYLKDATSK
Endo-1,4-beta-xylanase wild type, Q56013, sequence (Q56013 entry or part of it): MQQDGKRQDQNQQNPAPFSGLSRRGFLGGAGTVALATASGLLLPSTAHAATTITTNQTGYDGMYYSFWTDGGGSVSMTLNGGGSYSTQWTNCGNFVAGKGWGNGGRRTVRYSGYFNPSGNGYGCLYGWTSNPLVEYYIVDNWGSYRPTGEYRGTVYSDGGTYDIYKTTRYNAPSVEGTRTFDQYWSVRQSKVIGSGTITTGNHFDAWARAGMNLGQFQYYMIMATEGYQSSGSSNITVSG
Creatine kinase B-type wild type, P12277, sequence (P12277 whole entry): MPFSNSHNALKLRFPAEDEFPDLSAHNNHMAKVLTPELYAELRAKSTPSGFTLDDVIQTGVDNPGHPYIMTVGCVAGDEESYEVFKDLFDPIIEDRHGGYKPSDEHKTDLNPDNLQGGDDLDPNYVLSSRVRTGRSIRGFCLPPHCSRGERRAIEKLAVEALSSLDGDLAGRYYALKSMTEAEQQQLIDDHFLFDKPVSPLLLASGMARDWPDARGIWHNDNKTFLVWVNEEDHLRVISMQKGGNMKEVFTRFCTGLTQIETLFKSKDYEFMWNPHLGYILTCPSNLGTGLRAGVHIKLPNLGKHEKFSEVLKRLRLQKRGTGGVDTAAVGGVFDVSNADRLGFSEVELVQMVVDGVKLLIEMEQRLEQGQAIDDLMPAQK
Hepatoma-derived growth factor wild type, P51858, sequence (P51858 whole entry): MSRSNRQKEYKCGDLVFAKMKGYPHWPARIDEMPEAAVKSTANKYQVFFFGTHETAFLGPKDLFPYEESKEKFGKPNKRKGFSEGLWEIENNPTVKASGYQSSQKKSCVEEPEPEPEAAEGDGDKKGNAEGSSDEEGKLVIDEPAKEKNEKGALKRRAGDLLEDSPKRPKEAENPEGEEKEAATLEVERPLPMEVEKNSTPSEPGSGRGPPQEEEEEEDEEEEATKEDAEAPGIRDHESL
Cytochrome c wild type, P00041, sequence (P00041 whole entry): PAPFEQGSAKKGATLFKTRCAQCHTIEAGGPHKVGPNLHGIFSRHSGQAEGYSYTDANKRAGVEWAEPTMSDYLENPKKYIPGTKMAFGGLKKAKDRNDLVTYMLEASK
Cytochrome c wild type, P67881, sequence (P67881 whole entry): as the sequence (P67881 whole entry V93A) above, with A93V counted along it

## Parvalbumin beta wild type, P02618
[1]
  Tm: 90 °C
  heat capacity change of unfolding: 1.1 kcal/mol/K
  unfolding enthalpy (calorimetric): 120 kcal/mol
Cyprinus carpio, pH 7.5, Thermal, CD, Sodium phosphate 10 mM, EDTA 5 mM
  Tm: 32 °C
Cyprinus carpio, pH 7.5, Thermal, CD, Sodium phosphate 10 mM, NaCl 2 M
  Tm: 55 °C

## Cytochrome c wild type, P67881
[2]
  unfolding free energy: 5.17 kcal/mol

## Archaeal histone B wild type, P48784
[3]
  denaturant m value: 3.4 kcal/mol/M
  unfolding free energy: 5.7 kcal/mol and 10.8 kcal/mol

## AKKVLPLLLPPLVXAALGLAXF [wild type]
[4]
  Tm: 42.3 °C
  unfolding enthalpy (calorimetric): 300 kcal/mol

## Adenylate kinase G85V, P69441
[5]
  ddG of mutation (higher = less stable): 2.4 kcal/mol
[6]
  Tm: 40.7 °C
  change of melting temperature, mutant - wild type (higher = more stable): -11.1 °C
  unfolding enthalpy (calorimetric): 70 kcal/mol

## Cytochrome c isoform 1 N58I, P00044
Saccharomyces cerevisiae (strain ATCC 204508 / S288c), pH 4.6, 27 °C, GdnHCl, CD, Sodium acetate 50 mM, reversible: yes, structure 1YCC
  unfolding free energy: 6.8 kcal/mol and 18 kcal/mol
[7]
  ddG of mutation (higher = less stable): -3.14 kcal/mol
  unfolding free energy: 7.17 kcal/mol
[8]
  ddG of mutation (higher = less stable): -4.3 kcal/mol
  heat capacity change of unfolding: 2 kcal/mol/K

## Cytochrome c isoform 1 C108A, P00044
[8]
  ddG of mutation (higher = less stable): -2.9 kcal/mol
  heat capacity change of unfolding: 2 kcal/mol/K
[9]
  Tm: 58.1 °C
  change of melting temperature, mutant - wild type (higher = more stable): 11.6 °C
  heat capacity change of unfolding: 2 kcal/mol/K
  unfolding enthalpy (van 't Hoff): 89 kcal/mol

## Cytochrome c isoform 1 G35S|N58I, P00044 G35S N58I
[8]
  ddG of mutation (higher = less stable): 1.5 kcal/mol
  heat capacity change of unfolding: 2 kcal/mol/K
[9]
  Tm: 40.3 °C
  change of melting temperature, mutant - wild type (higher = more stable): -6.2 °C
  heat capacity change of unfolding: 2 kcal/mol/K
  unfolding enthalpy (van 't Hoff): 58 kcal/mol

## Cytochrome c isoform 1 C108S, P00044
[8]
  ddG of mutation (higher = less stable): -2.8 kcal/mol
  heat capacity change of unfolding: 2 kcal/mol/K
[9]
  Tm: 57.8 °C
  change of melting temperature, mutant - wild type (higher = more stable): 11.3 °C
  heat capacity change of unfolding: 2 kcal/mol/K
  unfolding enthalpy (van 't Hoff): 87 kcal/mol

## Adenylate kinase wild type, P69441
[10]
  Tm: 51.8 °C
  unfolding enthalpy (calorimetric): 95 kcal/mol
[11]
  Tm: 51.8 °C
  unfolding enthalpy (calorimetric): 95 kcal/mol
  unfolding enthalpy (van 't Hoff): 158 kcal/mol

## Cytochrome c isoform 1 N58I|C108A, P00044 N58I C108A
[8]
  ddG of mutation (higher = less stable): -6.2 kcal/mol
  heat capacity change of unfolding: 2 kcal/mol/K
[9]
  Tm: 71.5 °C
  change of melting temperature, mutant - wild type (higher = more stable): 25 °C
  heat capacity change of unfolding: 2 kcal/mol/K
  unfolding enthalpy (van 't Hoff): 115 kcal/mol

## Cytochrome c isoform 1 P77I, P00044
[12]
  ddG of mutation (higher = less stable): 1.7 kcal/mol
  denaturant midpoint (higher = more stable): 0.72 M
  unfolding free energy: 1.9 kcal/mol

## APRLPQCQGDDQEKCLCNKDECPPGQCRFPRGDADPYCE [Decorsin wild type]
Macrobdella decora, pH 7, Thermal, CD, Na2HPO4 10 mM, reversible: Yes, whole UniProt chain shown
  Tm: 74 °C

## Cytochrome c V93A, P67881
[2]
  ddG of mutation (higher = less stable): 0.26 kcal/mol
  unfolding free energy: 4.91 kcal/mol

## Myelin P2 protein (from UniProt P02689) I52T
[13]
  change of melting temperature, mutant - wild type (higher = more stable): -13 °C
  ddG of mutation (higher = less stable): 5.17 kcal/mol

## Myelin P2 protein (from UniProt P02689) T51P
[13]
  change of melting temperature, mutant - wild type (higher = more stable): -24 °C
  ddG of mutation (higher = less stable): 1.51 kcal/mol

## QQHADPICNKPCKTHDDCSGAWFCQACWNSARTCGPYVG [Metallocarboxypeptidase inhibitor wild type]
Solanum tuberosum, pH 8.4, 23 °C, GdnHCl, Fluorescence, Tris-HCl 0.1 M, whole UniProt chain shown
  denaturant midpoint (higher = more stable): 1.45 M
Solanum tuberosum, pH 8.4, 23 °C, GdnSCN, Fluorescence, Tris-HCl 0.1 M, whole UniProt chain shown
  denaturant midpoint (higher = more stable): 0.7 M

## Cytochrome c wild type, P00041
Pichia kudriavzevii, pH 6.5, 25 °C, GdnHCl, CD, HCl 0.1 M, reversible: yes
  unfolding free energy: 14 kcal/mol

## Adenylate kinase F86L, P69441
[5]
  ddG of mutation (higher = less stable): 0.8 kcal/mol
[6]
  Tm: 49.2 °C
  change of melting temperature, mutant - wild type (higher = more stable): -2.6 °C
  unfolding enthalpy (calorimetric): 97 kcal/mol

## Superoxide dismutase [Cu-Zn] wild type, P00442
Bos taurus, pH 7.8, Thermal, DSC, Potassium phosphate 100 mM, reversible: no (32%)
  Tm: 88.3 °C
[14]
  Tm: 59.9 °C
  unfolding enthalpy (calorimetric): 152 kcal/mol

## Leucine-rich repeat serine/threonine-protein kinase 2, Q5S007 G2385R
[15]
  Tm: 31.3 °C
  change of melting temperature, mutant - wild type (higher = more stable): 0.33 °C

## Phosphoenolpyruvate-protein phosphotransferase H189E, P08839
[16]
  Tm: 52.1 °C
  unfolding enthalpy (van 't Hoff): 128 kcal/mol
[17]
  Tm: 53.7 °C
  unfolding enthalpy (calorimetric): 135 kcal/mol

## Hepatoma-derived growth factor wild type, P51858
Homo sapiens, pH 7.4, Thermal, CD, phosphate 10 mM, NaCl 10 mM, transition: 2
  Tm: 47 °C

## Phosphocarrier protein HPr wild type, P0AA04
[18]
  denaturant m value: 1.06 kcal/mol/M
  denaturant midpoint (higher = more stable): 4.34 M
Escherichia coli (strain K12), pH 7, 30 °C, Urea, CD, Potassium phosphate 50 mM, reversible: yes
  unfolding free energy: 4.95 kcal/mol
Escherichia coli (strain K12), pH 7, Thermal, CD, Potassium phosphate 10 mM
  Tm: 30 °C

## Creatine kinase B-type wild type, P12277
Homo sapiens, pH 8, Thermal, CD, Tris-HCl, transition: 2, reversible: No
  Tm: 47.3 °C
Homo sapiens, pH 8, Thermal, Fluorescence, Tris-HCl, transition: 2, reversible: No
  Tm: 45.7 °C

## Cytochrome c isoform 1 H39P|N58I, P00044 H39P N58I
[8]
  ddG of mutation (higher = less stable): 0.8 kcal/mol
  heat capacity change of unfolding: 2 kcal/mol/K
[9]
  Tm: 43.1 °C
  change of melting temperature, mutant - wild type (higher = more stable): -3.4 °C
  heat capacity change of unfolding: 2 kcal/mol/K
  unfolding enthalpy (van 't Hoff): 61 kcal/mol

## Cold shock protein CspA wild type, P0A9X9
[19]
  denaturant m value: 0.59 kcal/mol/M
  denaturant midpoint (higher = more stable): 4.95 M
  unfolding free energy: 2.92 kcal/mol
[20]
  denaturant m value: 2.2 kcal/mol/M
  denaturant midpoint (higher = more stable): 1.4 M
  unfolding free energy: 3.1 kcal/mol
[21]
  denaturant m value: 0.71 kcal/mol/M
  denaturant midpoint (higher = more stable): 4.2 M
  unfolding free energy: 3 kcal/mol
[22]
  denaturant m value: 0.71 kcal/mol/M
  denaturant midpoint (higher = more stable): 4.2 M
  unfolding free energy: 3 kcal/mol
Escherichia coli (strain K12), pH 7, Thermal, CD, potassium phosphate 50 mM, KCl 100 M, reversible: yes
  Tm: 59 °C

## Cytochrome c isoform 1 P77T, P00044
[12]
  ddG of mutation (higher = less stable): 1.7 kcal/mol
  denaturant midpoint (higher = more stable): 0.72 M
  unfolding free energy: 1.9 kcal/mol

## Adenylate kinase D84H, P69441
[5]
  ddG of mutation (higher = less stable): 1.4 kcal/mol
[6]
  Tm: 44.6 °C
  change of melting temperature, mutant - wild type (higher = more stable): -7.2 °C
  unfolding enthalpy (calorimetric): 63 kcal/mol

## Endo-1,4-beta-xylanase wild type, Q56013
Streptomyces sp. EC3, pH 6, Thermal, CD, Sodium phosphate 25 mM, reversible: no
  Tm: 56.8 °C
Streptomyces sp. EC3, pH 6, Thermal, Fluorescence, Sodium phosphate 25 mM, reversible: no
  Tm: 61.1 °C

## Cytochrome c isoform 1 wild type, P00044
Saccharomyces cerevisiae (strain ATCC 204508 / S288c), pH 4.6, 25 °C, Thermal, Absorbance, Sodium acetate 100 mM, reversible: yes
  unfolding free energy: 5.3 kcal/mol
Saccharomyces cerevisiae (strain ATCC 204508 / S288c), pH 4.6, 25 °C, Thermal, CD, Sodium acetate 100 mM, reversible: yes
  unfolding free energy: 5.3 kcal/mol
Saccharomyces cerevisiae (strain ATCC 204508 / S288c), pH 4.6, 27 °C, GdnHCl, CD, Sodium acetate 50 mM, reversible: yes
  unfolding free energy: 5.6 kcal/mol and 15 kcal/mol
[23]
  denaturant midpoint (higher = more stable): 1.07 M
  unfolding free energy: 3.6 kcal/mol
Saccharomyces cerevisiae (strain ATCC 204508 / S288c), pH 6, 25 °C, Thermal, Absorbance, Sodium phosphate 100 mM, reversible: yes
  unfolding free energy: 3.8 kcal/mol
[24]
  denaturant m value: 3.71 kcal/mol/M
  denaturant midpoint (higher = more stable): 1.06 M
  unfolding free energy: 3.93 kcal/mol
[25]
  denaturant m value: 4.24 kcal/mol/M
  denaturant midpoint (higher = more stable): 1.19 M
  unfolding free energy: 5.05 kcal/mol
